Molecular target: T1, Non-POU domain-containing octamer-binding protein (NONO), endogenous, from HeLa nuclear extract (human (endogenous in HeLa), UniProt Q15233 1-471)
T1 sequence: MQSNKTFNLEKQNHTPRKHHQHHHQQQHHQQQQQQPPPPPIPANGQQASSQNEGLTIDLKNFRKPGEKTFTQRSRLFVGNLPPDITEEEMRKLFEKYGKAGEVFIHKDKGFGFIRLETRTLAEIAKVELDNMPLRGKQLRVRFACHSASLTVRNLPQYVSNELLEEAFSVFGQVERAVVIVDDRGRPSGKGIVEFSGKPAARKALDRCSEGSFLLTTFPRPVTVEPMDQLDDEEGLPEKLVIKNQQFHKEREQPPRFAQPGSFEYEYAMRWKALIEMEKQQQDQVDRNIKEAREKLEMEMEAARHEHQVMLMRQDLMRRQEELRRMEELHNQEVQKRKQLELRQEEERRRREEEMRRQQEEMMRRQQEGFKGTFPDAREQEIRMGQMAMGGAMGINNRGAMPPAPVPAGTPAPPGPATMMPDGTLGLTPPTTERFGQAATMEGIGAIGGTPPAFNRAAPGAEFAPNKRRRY
Assay: affinity purification with mass spectrometry

- stoichiometry N: 1
B1: Splicing factor, proline- and glutamine-rich (SFPQ), endogenous, from HeLa nuclear extract (natural protein)
chain: MSRDRFRSRGGGGGGFHRRGGGGGRGGLHDFRSPPPGMGLNQNRGPMGPGPGQSGPKPPIPPPPPHQQQQQPPPQQPPPQQPPPHQPPPHPQPHQQQQPPPPPQDSSKPVVAQGPGPAPGVGSAPPASSSAPPATPPTSGAPPGSGPGPTPTPPPAVTSAPPGAPPPTPPSSGVPTTPPQAGGPPPPPAAVPGPGPGPKQGPGPGGPKGGKMPGGPKPGGGPGLSTPGGHPKPPHRGGGEPRGGRQHHPPYHQQHHQGPPPGGPGGRSEEKISDSEGFKANLSLLRRPGEKTYTQRCRLFVGNLPADITEDEFKRLFAKYGEPGEVFINKGKGFGFIKLESRALAEIAKAELDDTPMRGRQLRVRFATHAAALSVRNLSPYVSNELLEEAFSQFGPIERAVVIVDDRGRSTGKGIVEFASKPAARKAFERCSEGVFLLTTTPRPVIVEPLEQLDDEDGLPEKLAQKNPMYQKERETPPRFAQHGTFEYEYSQRWKSLDEMEKQQREQVEKNMKDAKDKLESEMEDAYHEHQANLLRQDLMRRQEELRRMEELHNQEMQKRKEMQLRQEEERRRREEEMMIRQREMEEQMRRQREESYSRMGYMDPRERDMRMGGGGAMNMGDPYGSGGQKFPPLGGGGGIGYEANPGVPPATMSGSMMGSDMRTERFGQGGAGPVGGQGPRGMGPGTPAGYGRGREEYEGPNKKPRF
